Data published in the supplement of paper PMC12636428.

Tested on: Saccharomyces cerevisiae
Experiment: transcriptional activation domain activity (GFP:mCherry ratio, weighted mean of sorted bins, harmonized to initial dataset scale) (arbitrary fluorescence ratio units); higher = stronger transcriptional activation
Conditions: beta-estradiol 1 µM; induction time 4 h
Method in brief: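 Barcoded protein tiles fused to an estradiol-inducible synthetic transcription factor were integrated at the yeast URA3 locus, in diploids carrying a GFP reporter. Cultures were diluted 1:5 into SC with 1 uM beta-estradiol, held 4 hours at 30 °C, sorted into 8 bins by GFP:mCherry ratio, and barcodes sequenced. Tiles under 50 reads were discarded. Activation activity is the read-weighted mean of bin median fluorescence, averaged across barcodes, then linearly mapped onto the initial dataset scale.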

Row | Sequence | transcriptional activation domain activity
1 | NSSNNNNNNNIISNRKQASKEKRKIPRHIQTIDEKLINDSNYLAFLKFDDLEN | 83500
2 | NSSSNNNVSTVPSSMMHSSTLNGTSGLGGDNDDNMLALSLATLANSATASPRL | 27900
3 | NSSVYETVTRNLHDDLLGGSLNLKVILEMLLAHVIVNPSLVLEPAASLLRRNG | 58200
4 | NSTIHNLFEVVLLPDLCGFCCFSMRFVVLIDLIGTLTLPVSVVYLVYLIYVIA | 46800
5 | NSTIHNLLELVLLPELCGFCCFSMRFVVMIDLIGTLTLPSSVVYLVYLIYVVI | 56700
6 | NSTIHNLLEVVLLPDLCGFCCFSMRFVVLLDLIGTLTLPVTCLYLIYLIYVIA | 52100
7 | NSTIPLDFMPRDALHGFDWSEEDDMSDGLPFLKTDPNNNGFFGDGSLLCILRS | 109000
8 | NSTPAKVEEEAEAKPEEAKPEGEEVAKEEEEKKDEEPKPAIGDVVPDAVAVGQ | 25300
9 | NSTVHNLIELIPLQQLCGFCCFSMRFVVFLDLLSTVVQPVIVGYIVYLIVILT | 60200
10 | NSVPGSPETPTSSSLDGSRETGYLRVRVVSAKDLAARMRSRTATCSASAGSPL | 42100
11 | NSWLCGFQGIALMYLVLLLLCFGVLLIANLHFLSVYRSTWLQIHMTPMIVLSF | 57400
12 | NTCCCFFVCSFPSSKQKTLGALREGSWTFFFCFFLFFFLFFLVFFCFFLFCFF | 24000
13 | NTDTYILFLFPFFWASNWFYTYQQNCYQLFYFNLRGRTFTNLWYWLAQIFGAL | 72900
14 | NTLDVSEGNQVINESASTNTSSALNCQSYTNNQDIMDILFQVTSGSVWDEFFV | 149000
15 | NTLSRTKAYMTFILAFVAITSIVRFTGSTLYLIARFLLGKRAWITYLIYVYLY | 52700
16 | NTMQFSMNLGNSTVSGPFSGLVNGLTPKGTNMEPSLWASWSYYALWLPTWGTT | 52100
17 | NTPPAKKKRDGKKKAAAAGDMGEGEGGGKKVRKPRKDAGTKRGPNKRTAGATG | 41100
18 | NTTTPDAAEGDAEGEDSASASGSGSEGKGGEGEEKTGKKGKKGRKGKLLQRLK | 29500
19 | NTVWLILNDITIGIAFGTFLCENHLILAAYVNYTIEKLLIKEIQWILGWLDSW | 84200
20 | NTWLLFRQVVDVILLNDFVAYCMFAFSCFRVPEGLSLAVHIMRWVAGIALIAF | 56200
21 | NTWLQQLQDELNGSYSLTDNVNTPIDPSLSDLGVTSASPLAGNSPGLPPEEVR | 92100

Row | Sequence | transcriptional activation domain activity
22 | NVLDASSVIARRAVETGGRNVPRGAAGGGAPRNRARGFELEIGNATLLGRRHN | 29200
23 | NVLLLGLLGWLIRLVHNSEPTLVLKKLCSTLVTYFTRQSFRWRRCIKHLVCAF | 39900
24 | NVLYSRLSILSSLITLSWFLTAHILEYTSIHTCRFSSPHIWWLTFGILCIMYL | 51600
25 | NVQPTANAASANAAAAAAAAASNSYAIPENELLDEDTMNFISSLKNDLSNISN | 59700
26 | NVRLQVDQCAFVLEHCADATPGLINYIQWYYCSSTKPIVFILMCFWLLFLFGF | 40400
27 | NVRYITNLSFTSDSVYKFLLFYPLFLIMTEPIIQLLGIYLAYIYGLIYLILTS | 55800
28 | NVSDAPRIEPLPSLNDDDIEKILQPNDIFTTDRTDASTTSSTAIEDIINPSLD | 61300
29 | NVSPGTTDAGPWMRAIEELAGTGVYEHLGYGWKGWLFWLRDRSFCNMLMTGIW | 54200
30 | NWHHSIQVPYSFVANYDHPVCHMLHRWLPLYIPAVALRMHILTYLLLVAFFSL | 57700
31 | NWNKYNWLIIAILSNFTSWFFHVWHHKLYSAFHDTSRIKNWNLFKTIQFWLFI | 45300
32 | NWYFLGTTMYFLYGESVIYYFKHIVLVDKVLLPFATHHRFISFMLYVIGFVFF | 59100
33 | NWYKHINWLNTFFVVIMPMLGFIAAYWVPLHRYTALFAIFYYVHCGLGITAGY | 68500
34 | NWYWLASTMYFLYGESVIYYFKHIVLVDKVLLPLATHHRFISFVLYVIGFVFF | 74800
35 | NWYWLATTMYFLYGESVVYYLKHIVLVDKVLLPLATHHRFISFILYVFGFVFF | 46100
36 | NWYWLATTMYFLYGETVIYYFKHIVLVDKVLLPLATHHRFISFILYVFGFVFF | 58300
37 | NYVMLCSVYTTVHIHKHGRDAWKLMIRERSWKYILFAMADLQGNLFVLYAFRN | 59300
38 | PAAAAQAPPAAGGKKEEAAAAEVPQAEAAAEGAGSPEGEGKDAQAEAAAPAEG | 16800
39 | PAAATPAVSIGLIYLIIMAFFSFSFFLPIHMKYIQPQGHPPLHFWQLIIWRWL | 52700
40 | PAADKSDAPRKPVSISIGGGAKKAEEAKPEPAKAASEGPAPAGGVAAVKAAAA | 39300
41 | PAAEEVAAAPAHEEPALPKHEELEIEEADEPVHRAAPAERATAAPAAAPVKAP | 29700
42 | PAAGGFGATSTPAPAAGGFGGFGATAAAAKPAVGGFGGLGGGASAAPATTLTS | 23300

Row | Sequence | transcriptional activation domain activity
43 | PAANNPTGTLSSDELTFTHDLIEKVFNCNDKLSDNYNTQILSNTEHPLLTSYK | 73500
44 | PAAQFLTEKRDRGGGGKGGEEGGGGSGKKVYKGAAMPNRYGIRPGHRWDGVDR | 28200
45 | PAASGSDDDEPIAAKKPSAPRKRKAKVESDSDDEKPIAKKLAAKKPRASKVKA | 14100
46 | PAASTTHATAAPPAAPSPPSQTTPSAPATAASAPRTSPRPCASSCTSSATSRS | 31600
47 | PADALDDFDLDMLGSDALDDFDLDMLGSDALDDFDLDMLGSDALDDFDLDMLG | 152000
48 | PADDPQPAPATPKRRGRPPKNPKPAEEPKPAEEDPQPVPATTPKKRGRPPKAS | 26100
49 | PAEAPAAEPAAATEAPAETKDEKKEEKKEEKKEKKDEKKTEKSAKVGRRLSAR | 45100
50 | PAEATVAITNVLYVVQKYYPGSHNLITLLLAIRCVMFTVFRFVAAPLCVTHAL | 46700
51 | PAEGAEDAGEVKKKHRKRRRKRRGDAKDAAAEGGDEPENEDGEVGEGDNAAVS | 9150
52 | PAEGEAAAAPAAEESAAPAARTGSSSSSSSNEEKKKKAAKSKSRSVSRGKRTS | 23200
53 | PAEVKLIWTRPVTLTKVIFVFVRYSIALCQVTAVYVLLIVRVYTLWDHRRAIL | 70300
54 | PAGDNKAPRKEGARANNRPRDNDAPRGPRYDRTPRDGDAASRAPRGARAPRGA | 41700
55 | PAHSLLELIQLMKRKAFVCWYLFTIVIVLLLLLWIFLSVNYFHCIKPINFNTD | 34800
56 | PAHVIFDVVIVCAGYFAREAFEEVVRMTTMCAVGPVFVVQALVRAGKVCTGIG | 76300
57 | PANSSFVYVPMGWTLEVRNDGNPAIYAALLVRALLSRRVCRVGLLKHNTILVH | 51300
58 | PAPAAAAASSSTATEKASGEQQPRESKRNPRHRNKRGRDNKDKDGKEGAGGKS | 28100
59 | PAPAAERREFEEELEARAPGGRGGFRGPRGGPRGPAPAPAPPAAERREFIEDL | 28600
60 | PAPAAKKEEKPAAATAEAPKEEAAAAVAAEEPKETKEEEKKEEAKEEKKEEAK | 15800
61 | PAPAPAPAPRKGRSKKPVASPSASPVLAPAPAPAIALRKGRSKKPVASPSASP | 36100
62 | PAPAPEAPKEEEAAAEPAAEPPKTEEAPAAEPVKEPEQAEPTPAADAPADAPA | 18900
63 | PAPAPMGRRTFAVDVDESAHSLAKKVKAARVRGYNYIIVVGERDAERGTAAVQ | 44800

Row | Sequence | transcriptional activation domain activity
64 | PAPKKAAAPAKKDALKAKKEESSSSSSDSEDEKPAPKKAAASAAKKVVAKAQK | 21000
65 | PAPKKAPAKPRGRKPKPTADSDNQEVEAEAKPKSARGKKRTVAEKAAEEGAQP | < 6570
66 | PAPKKRAPRKRKANAATVEGEAEDNEAEGAAAAAPPKKRARTRKAAAAAAEPS | 41700
67 | PAPKRRGRPSKERVEEQQASDDETAQSSPKRRGRLPRQAASASASASAPVAAK | 44100
68 | PAPSAAPAPAKEEDDDDEKEEAGGKADAKKKKKKKGKKDDEPAPAAAPAAAGK | 29400
69 | PAPTGDSPKKEKKRKRESAVAEDAPAAAEAEEADEPEKKKKKKKKHAEAEGAN | 23700
70 | PARAHGNRDDERGGGVRGGVPADARATLARRVQPHPLARARARVCAGAAVRGE | 48600
71 | PARGNKDVFFIMFHPSEEFLFNILSLWLRACNPNCRIFHSHEAGSWKQYQKET | 45000
72 | PASNGHAEPETKPEPEAAPEPVEEKAATPAPATPAQPSPAPTPAPAAAAPSPA | 10200
73 | PASPPIDRMERLHIRRTSPSPQGNYDEIRIDRARRISSSPPRRYEEVRVRHVS | 26700
74 | PASRGYDRDRDYRRSPSPRERRERDRSRDRDYDRPRSPAVRATLSSSPAPAAL | 22600
75 | PATTSPAPRGLTASGQPRKKPGPKPKLKDPNAPEPEKKARKARKVVEAKDPAV | < 6570
76 | PAVRVLPCNHGPGGDLCIICRTPLFQLTLFKYLMTKMCHVRTWLMFGILDLTF | 47700
77 | PAYEMCTYVWGFRGACLGLLWLIWFVVLYFVLRIRNIHSSFNERIESIIICFL | 48800
78 | PAYKLLVAAIWSLEIVDQAFIGHCVYYYTISNYMSPQVLLFGDVIWTLIIQLV | 43000
79 | PCKCHTKRKSSRKSKGGSCHRRANDEAAHVNGLGIADLDVLLGLNGRSSDVDM | 44000
80 | PCMLRLLIWIAFKLVPENSSIREPLNFLLDHPRRCYTLLFPSGPTWTLFAFLV | 60500
81 | PCPETSTPPPPPPKPTTAYPPPKSSEAPPPPPPKPTTAYPPPPKSSEAPPPPP | 47900
82 | PCSHTILNYGMTLSVSLVVVFRVSHMSFLSSSELSFLRGYHMMLASAFFLFVF | 36600
83 | PDDHKLLKALVFFLWVFDGLHIALICHAFYLITVTNFGNVLALLTIPRTLPIA | 58400
